Measurements: US20170319711A1

Columns and labels:
[1] = target: Human 5T4 antigen on cells (human) (UniProt Q13641); assay: flow cytometry, A431 cells
[2] = target: Human 5T4 antigen on cells (human) (UniProt Q13641); assay: flow cytometry, MDAMB468 cells
[3] = target: Human 5T4 antigen on cells (human) (UniProt Q13641); assay: flow cytometry, PC3mm2 cells

Chain of Human 5T4 antigen on cells (human) (Q13641 32-420 limits assumed): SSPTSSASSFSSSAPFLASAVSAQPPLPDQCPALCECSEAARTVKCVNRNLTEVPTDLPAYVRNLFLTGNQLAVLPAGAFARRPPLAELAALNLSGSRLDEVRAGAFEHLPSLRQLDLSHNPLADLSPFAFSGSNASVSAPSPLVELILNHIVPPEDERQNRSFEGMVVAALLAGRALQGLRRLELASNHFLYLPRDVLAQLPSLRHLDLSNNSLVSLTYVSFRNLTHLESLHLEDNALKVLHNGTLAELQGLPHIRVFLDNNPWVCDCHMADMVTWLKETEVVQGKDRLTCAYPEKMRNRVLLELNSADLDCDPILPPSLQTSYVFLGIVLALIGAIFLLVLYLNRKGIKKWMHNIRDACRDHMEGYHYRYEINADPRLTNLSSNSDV

Mean Fluorescent Intensity [1]: < 100
Mean Fluorescent Intensity [2]: < 100
Mean Fluorescent Intensity [3]: < 100
Substance: IgG control (antibody)
